Substrate in series [1]: CC(C)(COP(=O)(O)OP(=O)(O)OC[C@H]1O[C@@H](n2cnc3c(N)ncnc32)[C@H](O)[C@@H]1OP(=O)(O)O)[C@@H](O)C(=O)NCCC(=O)NCCSC(=O)c1ccccc1
The series is described as follows: continuous spectrophotometric assay, dithionite-reduced methyl viologen as electron donor. The following applies: ATP-dependent, 30°C, enriched enzyme. It is filed as biochemical, Thauera aromatica.

Substrate in series [2]: CC(C)(COP(=O)(O)OP(=O)(O)OC[C@H]1O[C@@H](n2cnc3c(N)ncnc32)[C@H](O)[C@@H]1OP(=O)(O)O)[C@@H](O)C(=O)NCCC(=O)NCCSC(=O)c1ccc(F)cc1
The series is described as above. It is filed as biochemical, Thauera aromatica. The following applies: ATP-dependent, 30°C, enriched enzyme.

In paper PMC4992971, “ATP-Dependent C–F Bond Cleavage Allows the Complete Degradation of 4-Fluoroaromatics without Oxygen” (mBio, 2016) one finds Km data, which are given here for 1 protein.

B1: 4-F-BCR / class I benzoyl-CoA reductase (BCR, BcrABCD) (Thauera aromatica) (protein)
chain 1: SAKTNPEVIKESSMVKQKEMIAGNYDRLTGTKESGEKVVSTFVPGNLNELIMCFDMVNNLPETNAIQNGMRKQSGGMIMDAEKAGHSEDVCTYVKADIGMMGRGNIAPNGKPMPAPDMLLLSYTGCFTFMKWFELLRHEYKCPTVMLQIPYQGDGKITKNMRDFVVKQLKEEVIPMFEQVSGVKFDIDRLREYLKNSAKAEDDLVWVLESAKNRPSPIDAYFGGVYYIGPMFTAFRGTADAVEYYGLLRGEIEQRIREGKGPITPEGDMKEEKYRLVVEGPPNWTSFREFWKLFYDEGAVVVASSYTKVGGLYDQGFRHDPNDPLGTLADYCLGCYTNNNLPQRVELLEKYMNEYQADGLLINSIKSCNSFSAGQLLMMREIEKRTGKPAAFIETDLVDPRYFSHANVKNRLESYFQMVDQKRSGASLATA
chain 2: STADIIARCEALYEDLDFTAARQWKEADPSRKVIAYMPVYVPREIIHAAGMLPLGIMGGGDGLEVIHGDAFYQSYICRIPRSTIELGLSKRMDFVDGMLFPSICDVIRNLSGMWKLMFPGKYVRYFDVPQNYRDDVGGNYYTAELNELREGLEHLSGRKITDDALRASIKVYNENRKLVQDVYGLRSREPWKVPSADVYLLMRAGLVLPVEEHNQMLKDYLAAAVKVEAQKRDNCRVIINGSFCEQPPLNLIKSIELSGCYIVDDDYMIVHRFLRNEVSTAGDPMQNLSLAFLHESISTAAKYDDKEEDKGKYLLEQVRTNAAEGVIFAAPSFCDPALLERPMLADRCSENKVPYISFKYAENSGQMQPIREQAGTFADSIKLWS
notes: native enzyme enriched from 4-fluorobenzoate-grown cells, heterotetramer of four subunits BcrABCD, no tag; with Benzoyl-CoA reductase subunit A; Benzoyl-CoA reductase subunit D
Take B1: the values for the Km in series [1] and in series [2] were 43 µM and 97 µM, respectively.
